For one assay, the target named is H3Tetra^ac nucleosome (UniProt P68431). Briefly: AlphaScreen or HTRF; dCypher: GST-CECR2-BRD titrated against PTM-defined nucleosomes (10 nM); glutathione Acceptor and streptavidin Donor beads; 20 mM Tris pH 7.5, 250 mM NaCl, 0.01% NP-40, 0.01% BSA, 1 mM DTT; room temperature; relative EC50 (EC50^rel). Background: In Alpha technology, singlet oxygen from a donor bead excites a nearby acceptor bead.

A further assay has as its target H4Tetra^ac nucleosome (UniProt P68431). Described as above.

In general, EC50 refers to the concentration that produces a half-maximal response.

GST-CECR2-BRD (GST tag retained, for dCypher assays), sequence (Q9BXF3 424-538): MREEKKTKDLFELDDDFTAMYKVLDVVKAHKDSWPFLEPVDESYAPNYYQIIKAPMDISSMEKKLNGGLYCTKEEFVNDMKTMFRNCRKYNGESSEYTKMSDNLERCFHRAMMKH

As for “GST-CECR2-BRD (GST tag retained, for dCypher assays) (from UniProt Q9BXF3-1 424-538) (domain or fragment)”, the EC50 in the assay with H3Tetra^ac nucleosome was 6 nM; with H4Tetra^ac nucleosome, 9.2 nM.

The values are drawn from article doi:10.1101/2024.12.09.627393.
